Entries after “also recorded” stand apart in the source; their conditions may differ.
Tests used:
[1] = test system: TIMP-1; test: TIMP-1 production by human skin fibroblasts; type: cell-based
Description: To test this we used a cell culture model of skin healing/scarring, which employed the use of primary human skin fibroblasts derived from foreskins collected post circumcision. These have been used extensively in the past to grown in culture and treated with agents that are known to drive wound healing and or scarring. We were also interested in a rare form of skin fibrosis/scarring that can lead to systemic disease and death known as nephrogenic systemic fibrosis (NSF). NSF is a complication of NMR diagnostics in renal impaired patients, where gadolinium (GAD), a heavy metal, is used as a contrast agent, but in some cases appears to deposit in skin. Although the mechanism for development of skin fibrosis and subsequent systemic disease is not yet completely understood, we have developed a model that has allowed elucidation of the probable pathway to skin fibrosis (Bhagavathula, N., M. K. Dame, M. DaSilva, W. Jenkins, M. N. Aslam, P. Perone and J. Varani (2010)). “Fibroblast response to gadolinium: role for platelet-derived growth factor receptor.” Invest Radiol 45(12): 769-777). This disease is characterized as a hyperproliferative disease, and in our model it was shown that PDGF produced by resident skin fibroblasts are stimulated by GAD to increase their production of PDGF which acts to induce proliferation and the increased production of MMPs, regulators of ECM breakdown and thus turnover, including the major MMP, MMP-1. At the same time tissue inhibitors of MMPs (TIMPs) are also affected by exposure to GAD. […] It appears that local fibroblasts then respond to this increased TGF-beta by increasing their production of ECM, including predominantly collagen type 1.
We examined the role of CCN3 and CCNp in fibroproliferative/fibrotic responses in human dermal fibroblasts exposed to Omniscan, one of the gadolinium-based contrast agents associated with development of nephrogenic systemic fibrosis. These studies were carried out as we have previously described (Riser, B. L., N. Bhagavathula, P. Perone, K. Garchow, Y. Xu, G. J. Fisher, F. Najmabadi, D. Attili and J. Varani (2012)). “Gadolinium-induced fibrosis is counter-regulated by CCN3 in human dermal fibroblasts: a model for potential treatment of nephrogenic systemic fibrosis.” J Cell Commun Signal 6(2): 97-105.). In our studies, human dermal fibroblasts were exposed to Omniscan; or to PDGF and TGF-β1 as controls. Cellular proliferation was assessed along with MMP-1 (by ELISA and gelatin zymography), TIMP-1 (by ELISA) and COL1 (by ELISA) in the absence and presence of CCN3 and CCNp. CCN3 and CCNp38 was added to cells at 10 nM concentration and at the same time as PDGF. In parallel, CCN3 production was assessed in control and Omniscan-treated cells. In most case the results shown (each bar) are the mean of 3-5 separate experiments, using fibroblasts from different donors. CCN3 was produced in our laboratory from the human embryonic kidney cell line (HEK-293) transfected with the complete human CCN3 gene, and producing an approximate 55 kDa, full-length CCN3 product. A second source of CCN3 was obtained from Pepro Tech Corporation (Rocky Hill, NJ) and is produced in a prokaryote cell line.
Next we created and tested for efficacy, additional CCNp including those with the cysteines intact (native sequence) from CCNp37 and CCNp38 and those that were modified by either shortening the peptide by 1 or 2 amino acids or lengthening by one amino acid. […]

[2] = test system: BTBR Ob/Ob mouse; test: BTBR Ob/Ob mouse model of diabetic renal disease; type: in vivo
Method: This was carried out using the BTBR Ob/Ob mouse strain that has a defective leptin receptor that results in increased appetite. As a result it rapidly gains weight over the control strain and becomes hyperglycemic at about one month of age, going on to develop renal disease resembling that in humans. This is regarded by some to be the rodent model best mirroring renal disease in humans as a complication of diabetes. Animals were treated with either rCCN3 (SEQ. ID. NO: 67) or CCNp38 (SEQ. ID. NO: 38) beginning at 9 weeks of age, when early renal disease has been documented. The disease was allowed to develop for 9 weeks, then treatment started. Mice were treated 3 times per week for 8 weeks. At 17 weeks, blood and urine were collected, and animals sacrificed with organ samples collected. The effect of treatment with either CCN3 (2 concentrations, 2 or 20× the circulating amounts) or mimic peptide (CCNp38, 2 concentrations, 20 or 200× the equivalent molar circulating concentration of CCN3) was tested. Assays to determine the effect of CCN3 or peptide on expression of target fibrosis genes and clinical pathology were determined using methods as previously described (Riser, Amer J Pathology 2009) and (McIntosh, L M, et al., Selective CCR2-targeted macrophage depletion ameliorates experimental mesangioproliferative glomerulonephritis, Clinical and Experimental Immunology, 2008, 155, 295-303).
This was carried out using the BT/BR Ob/Ob mouse strain that has a defective leptin receptor that results in increased appetite. As a result mice rapidly gain weight over the control strain and become hyperglycemic at about one month of age going on to develop renal disease resembling that in humans. This is regarded by some to be the best rodent model for mirroring renal disease in humans as a complication of diabetes. […] Animals were treated with either rCCN3 (SEQ. ID. NO: 67) or CCNp38 (SEQ. ID. NO: 38) beginning at 9 weeks of age, when early renal disease has been documented. Mice were treated for 8 weeks, then sacrificed and measured for renal disease and other complications, and the effect drug treatment. Test animals were documented to have developed diabetes by 9 weeks, and were randomized for treatment, thus providing equivalent blood glucose levels in each treated group.

[3] = test system: CCN2 receptor; test: adhesion of mesangial cells to CCN2 coated plates; type: cell-based, rat; settings: 27 nM, rodent mesangial cells
Description: The peptides selected above, and shown in FIG. 5, were synthesized and tested in the three different in vitro assays constructed to model fibrosis, or fibrosis-related pathology in vivo for anti-fibrotic activity. These assays have been used extensively by us and by others, and are highly predictive of related responses in vivo, including those occurring in humans. One in vitro assay, i.e., of cell adhesion in vitro was used. There is a requirement for adhesion in wound healing and fibrosis, with cells responding to the binding of CCN2 to their receptors for other critical activities. Also alteration of cell attachment and receptor binding is implicated in other non-fibrotic diseases, previously named in this application. For this adhesion assay, a well of a culture plate was coated with CCN2 protein and then rat mesangial cells were added for a defined period. […] After a standard period of incubation, the cells are washed to remove non-attached cells. These adherent cells are then removed and counted to determine the percent of the total cells that adhered. The ability of each peptide to block this binding was examined by preincubating cells with the peptide of interest. Controls were used for comparison without CCN2 coating.

B1: CCN3: full-length recombinant human CCN3 protein (SEQ. ID. No. 67), commercial (Pepro Tech) or made in HEK-293 (protein)
chain: MQVAATQRCPPQCPGRCPATPPTCAPGVRAVLDGCSCCLVCARQRGESCSDLEPCDESSGLYCDRSADPSNQTGICTAVEGDNCVFDGVIYRSGEKFQPSCKFQCTCRDGQIGCVPRCQLDVLLPEPNCPAPRKVEVPGECCEKWICGPDEEDSLGGLTLAAYRPEATLGVEVSDSSVNCIEQTTEWTACSKSCGMGFSTRVTNRNRQCEMLKQTRLCMVRPCEQEPEQPTDKKGKKCLRTKKSLKAIHLQFKNCTSLHTYKPRFCGVCSDGRCCTPHNTKTIQAEFQCSPGQIVKKPVMVIGTCTCHTNCPKNNEAFLQELELKTTRGKM
[1]; FIGS. 28-30
  block of PDGF stimulated TIMP-1 production: unable to block the increase in TIMP-1
[1]; PDGF, 10 nM, FIG. 19
  block of PDGF-induced increase in TIMP-1 production: neither CCNp38-3 (Seq. ID. No. 56) nor CCN3 (SEQ. ID. No. 67) is able to block or reduce the increase in TIMP-1 production
[1]; TGF-beta (fails to stimulate), FIG. 20
  effect on TIMP-1 production with TGF-beta: neither CCNp38-3 nor CCN3 have an effect; also recorded: neither CCNp38-3 or CCN3 have an effect
[2]; 17 weeks of diabetes, 8 weeks of treatment 3 times per week, FIG. 35
  effect on elevated plasma creatinine: reduces or blocks this pathology; also recorded: reduces or blocks this impairment
[2]; 17 weeks of diabetes, 8 weeks of treatment, FIG. 36
  effect on elevated albumin to creatinine ratio: greatly blocks this pathology; also recorded: greatly blocks this renal damage
[2]; 17 weeks of diabetes, 8 weeks of treatment, FIG. 37
  effect on mesangial expansion (PAS staining, image analysis): greatly block this pathology and treats the disease; also recorded: greatly blocks this pathology
[2]; kidney, 8 weeks of treatment, FIG. 38
  effect on increased renal mRNA levels for CCN2: greatly reduces or blocks the increase
[2]; kidney, 8 weeks of treatment, FIG. 39
  effect on increased renal mRNA levels for Col1A2: greatly reduces or blocks the increase
[3]
  inhibition of cellular adhesion to CCN2 coated plates: some inhibition

Reference: patent US12024544B2, “CCN3 and CCN3 peptides and analogs thereof for therapeutic use” (Rosalind Franklin University of Medicine & Science, priority 2010, dated 2024)
